Numbering of substitutions follows the chain as printed.
Key:
[1] = target: T1, Taq59 (TaqLF P685R Y686R E687R) (Thermus aquaticus, UniProt P19821 SEQ:1-544); assay: EMSA; apparent; clear shift at 25 nM, two-step shift at 400 nM; 20 mM Tris-HCl pH 8.8, 10 mM NaCl, 5 mM MgCl2, 40 C; settings: label: 5'-32P on d27; primer-template, 27 bp duplex with 22 nt 5' overhang on 49N
T1 chain: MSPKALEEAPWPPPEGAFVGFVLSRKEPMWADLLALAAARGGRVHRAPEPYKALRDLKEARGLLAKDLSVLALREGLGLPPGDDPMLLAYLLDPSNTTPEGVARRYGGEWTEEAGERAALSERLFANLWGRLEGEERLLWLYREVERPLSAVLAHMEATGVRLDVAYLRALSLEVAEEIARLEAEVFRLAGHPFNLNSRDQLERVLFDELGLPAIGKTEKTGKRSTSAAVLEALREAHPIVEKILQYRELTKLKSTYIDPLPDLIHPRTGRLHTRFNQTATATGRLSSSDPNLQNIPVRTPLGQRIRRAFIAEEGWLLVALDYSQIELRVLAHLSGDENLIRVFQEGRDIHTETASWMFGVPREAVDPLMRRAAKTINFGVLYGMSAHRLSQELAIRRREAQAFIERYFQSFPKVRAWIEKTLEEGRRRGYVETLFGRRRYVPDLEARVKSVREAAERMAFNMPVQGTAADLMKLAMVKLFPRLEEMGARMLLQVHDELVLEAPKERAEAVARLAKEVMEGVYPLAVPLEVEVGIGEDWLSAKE
Experimental: (§1) The affinity of variant Taq polymerases and primed DNAs was examined using a gel shift assay. The measurement was carried out in the following manner.
(§2) First, DNA in which a 27 nt of a single-stranded DNA (d27, SEQ ID NO: 50) radioactive-labeled with ³²P at 5′-terminal was annealed to a non-labeled 49 nt of a single-stranded DNA (49N, SEQ ID NO: 51) was used as a substrate DNA for the measurement of DNA binding ability. DNA polymerase proteins were added to 10 μl of Solution E [20 mM Tris-HCl, pH 8.8, 10 mM NaCl, 5 mM MgCl₂, 14 mM 2-mercaptoethanol, 0.1 mg/ml BSA and 5% (v/v) glycerol] containing 2 nM substrate DNA so as to have concentration of from 0.6 to 400 nM, and the mixture was held at 40° C. for 5 minutes. A liquid DNA-enzyme mixture was subjected to 1% agarose gel and electrophoresed in a 0.1×TAE solution [4 mM Tris base, 2 mM acetic acid and 0.1 mM EDTA]. After the termination of electrophoresis, the gel was dried, and the dried gel was exposed to an imaging plate. Typhoon TRIO+ was used to detect a labeled DNA.

[2] = target: T2, Taq58 (TaqLF P685S Y686R E687K) (Thermus aquaticus, UniProt P19821 SEQ:1-544); assay: EMSA; apparent; shifted band from 25 nM; 20 mM Tris-HCl pH 8.8, 10 mM NaCl, 5 mM MgCl2, 40 C; settings: label: 5'-32P on d27; primer-template, 27 bp duplex with 22 nt 5' overhang on 49N
T2 chain: T1 chain with R397S, R399K
Experimental: as §1, §2

B1: primed DNA d27/49N (dsDNA)
DNA 1: AGCTATGACCATGATTACGAATTGCTT
DNA 2: AGCTACCATGCCTGCACGAATTAAGCAATTCGTAATCATGGTCATAGCT
Which Kd [1] does the source give for B1 here?
The Kd was 40 nM.

And the Kd [2]?
Its Kd is 100 nM.
